Data taken from the Human Domainome abundance scans (Beltran et al. 2025).
± gives the uncertainty stated by the source.

B1: Chromodomain-helicase-DNA-binding protein 5, residues 411 to 463; numbered along this chain, Q8TDI0 (parent)
chain: EEDDHMEFCRVCKDGGELLCCDACPSSYHLHCLNPPLPEIPNGEWLCPRCTCP

Variants of: B1
Assay: abundance fitness (aPCA) (normalised: wild type 0, dead -1); higher = more abundant; growth selection in yeast, the domain comes from the species named
Settings: Homo sapiens

Point of comparison: C21R, abundance fitness -1.09 ± 0.099. Against it:
- L18P — within error, -0.91 ± 0.29
- L18A — higher, -0.769 ± 0.15
- L18M — higher, -0.019 ± 0.1
- L18T — higher, -0.076 ± 0.099
- L18R — higher, -0.084 ± 0.062
- L18V — higher, 0.065 ± 0.082
- L18F — within error, -0.969 ± 0.24
- L18E — within error, -0.812 ± 0.25
- L18Q — higher, -0.415 ± 0.15
- C52V — higher, 0.062 ± 0.055
- C52G — higher, 0.029 ± 0.055
- C52K — higher, -0.198 ± 0.14
- C52Y — higher, -0.295 ± 0.092
- C52A — higher, 0.067 ± 0.054
- C52N — higher, 0.222 ± 0.11
- C52E — higher, 0.126 ± 0.08
- C52Q — higher, -0.121 ± 0.11
- S26I — higher, -0.08 ± 0.1
- S26R — higher, -0.106 ± 0.078
- S26E — higher, 0.011 ± 0.068
- S26L — higher, 0.001 ± 0.05
- S26K — higher, -0.062 ± 0.09
- S26N — higher, 0.167 ± 0.37
- E7A — higher, -0.031 ± 0.083
- E7M — higher, -0.378 ± 0.11
- E7G — higher, -0.079 ± 0.052
- E7V — higher, 0.063 ± 0.064
- E7L — higher, -0.131 ± 0.065
- E7W — higher, -0.247 ± 0.067
- E7Q — higher, -0.332 ± 0.12
- E7R — higher, -0.027 ± 0.074
- E7K — higher, -0.316 ± 0.094
- N34F — higher, 0.066 ± 0.096
- N34V — higher, -0.067 ± 0.073
- N34R — higher, -0.039 ± 0.057
- N34L — higher, -0.015 ± 0.048
- V11E — higher, 0.18 ± 0.076
- V11I — higher, 0.069 ± 0.061
- V11Y — higher, -0.056 ± 0.076
- V11F — higher, -0.111 ± 0.1
- V11N — higher, -0.131 ± 0.15
- V11Q — higher, -0.012 ± 0.1
- V11C — higher, -0.275 ± 0.11
- V11G — higher, 0.046 ± 0.053
- V11R — higher, -0.113 ± 0.058
- C50N — higher, -0.591 ± 0.11
- C50H — higher, 0.008 ± 0.058
- C50D — higher, -0.4 ± 0.062
- C50V — higher, -0.675 ± 0.057
- C50W — higher, -0.477 ± 0.066
- E39N — higher, 0.116 ± 0.18
- E39Y — higher, -0.329 ± 0.37
- E39H — higher, 0.098 ± 0.17
- E39C — higher, -0.438 ± 0.37
- P36H — higher, -0.211 ± 0.15
- P36C — higher, -0.084 ± 0.088
- P36D — higher, -0.068 ± 0.048
- P36E — higher, -0.194 ± 0.1
- P36F — higher, -0.091 ± 0.12
- P36L — higher, -0.215 ± 0.055
- P36Q — higher, 0.089 ± 0.1
- D22L — higher, -0.026 ± 0.044
- D22F — higher, -0.139 ± 0.066
- D22I — higher, -0.04 ± 0.068
- D22N — higher, 0.093 ± 0.053
- D22C — higher, -0.046 ± 0.08
- D22H — higher, 0.005 ± 0.054
- D14N — higher, -0.061 ± 0.048
- D14Q — higher, -0.2 ± 0.18
- D14W — higher, -0.232 ± 0.096
- D14G — higher, 0.086 ± 0.085
- D14P — within error, -0.984 ± 0.17
- D14Y — higher, -0.452 ± 0.15
- D14E — higher, 0.059 ± 0.13
- T51R — higher, -0.035 ± 0.053
- T51Y — higher, -0.161 ± 0.097
- T51F — higher, -0.142 ± 0.12
- T51D — higher, 0.202 ± 0.099
- T51H — higher, -0.228 ± 0.13
- T51W — higher, -0.346 ± 0.075
- T51A — higher, -0.061 ± 0.046
- W45S — higher, -0.459 ± 0.071
- W45L — higher, -0.52 ± 0.047
- W45F — higher, -0.593 ± 0.2
- W45V — higher, -0.579 ± 0.046
- W45M — higher, -0.491 ± 0.088
- W45E — higher, -0.523 ± 0.083
- W45I — higher, -0.667 ± 0.16
- C21H — higher, -0.773 ± 0.17
- C21G — higher, -0.809 ± 0.067
- C21S — higher, -0.883 ± 0.058
- C21Q — higher, -0.633 ± 0.079
- C21E — higher, -0.873 ± 0.11
- C21M — within error, -1.08 ± 0.23
- N42H — higher, -0.054 ± 0.1
- N42K — higher, -0.144 ± 0.093
- N42F — higher, -0.266 ± 0.083
- N42Y — higher, 0.059 ± 0.12
- N42E — higher, -0.022 ± 0.071
- N42A — higher, 0.011 ± 0.068
- N42G — higher, 0.12 ± 0.06
- N42P — higher, 0.16 ± 0.075
- R49T — higher, 0.112 ± 0.069
- R49P — higher, -0.106 ± 0.063
- R49E — higher, 0.148 ± 0.054
- R49Q — higher, 0.156 ± 0.069
- R49L — higher, -0.094 ± 0.048
- R49W — higher, -0.073 ± 0.064
- R49A — higher, -0.017 ± 0.056
- P53R — higher, -0.669 ± 0.29
- P53L — higher, 0.13 ± 0.15
- P53A — higher, -0.091 ± 0.14
- P53T — higher, -0.083 ± 0.16
- P53G — higher, -0.097 ± 0.06
- C12I — higher, -0.601 ± 0.095
- C12Q — within error, -0.938 ± 0.19
- C12G — higher, -0.66 ± 0.066
- C12S — within error, -0.947 ± 0.07
- C12F — higher, -0.756 ± 0.21
- C12V — higher, -0.828 ± 0.088
- C12L — within error, -0.971 ± 0.079
- C12R — higher, -0.783 ± 0.082
- C12K — higher, -0.684 ± 0.12
- C12E — higher, -0.504 ± 0.049
- C12N — within error, -0.852 ± 0.21
- E2V — higher, -0.125 ± 0.081
- E2M — within error, -0.669 ± 0.4
- E2H — higher, -0.261 ± 0.13
- E2T — higher, 0.011 ± 0.12
- E2R — higher, -0.042 ± 0.085
- E2W — higher, -0.314 ± 0.13
- E2P — higher, -0.228 ± 0.088
- E2G — higher, -0.131 ± 0.054
- P48N — higher, -0.106 ± 0.12
- P48M — higher, -0.389 ± 0.09
- P48Q — higher, -0.09 ± 0.079
- P48D — higher, 0.212 ± 0.11
- P48A — higher, -0.27 ± 0.085
- P25E — higher, 0.054 ± 0.084
- P25C — higher, 0.087 ± 0.061
- P25S — higher, 0.022 ± 0.055
- P25I — higher, -0.04 ± 0.1
- P25H — higher, 0.024 ± 0.09
- P25L — higher, -0.157 ± 0.067
- E17A — higher, -0.063 ± 0.043
- E17S — higher, -0.21 ± 0.045
- E17M — higher, -0.13 ± 0.059
- E17P — higher, -0.239 ± 0.052
- E17W — higher, -0.458 ± 0.052
- E17C — higher, -0.187 ± 0.074
- H29T — within error, -1.14 ± 0.41
- H29L — higher, -0.528 ± 0.076
- H29W — within error, -1.25 ± 0.26
- H29G — higher, -0.825 ± 0.063
- H29K — within error, -1.06 ± 0.25
- H29C — higher, -0.164 ± 0.082
- H29V — within error, -0.882 ± 0.11
- H29M — within error, -0.87 ± 0.15
- L33S — higher, -0.487 ± 0.061
- L33I — higher, 0.252 ± 0.082
- L33V — higher, -0.04 ± 0.055
- L33W — higher, -0.594 ± 0.064
- L33K — higher, -0.699 ± 0.049
- F8I — higher, -0.347 ± 0.12
- F8Y — higher, 0.033 ± 0.088
- F8R — higher, -0.051 ± 0.045
